pKd: −log10 of the molar value.

Assay [1] has as its target BGB-A317/IgG4_(S228P) (human). Briefly: SPR; Biacore, human PD-1/His immobilised on a CM5 chip; the antibody captured on the PD-1/His surface; FcγRI injected over it.
In assay [2] the target is FcγRI on HEK293/FcγRI cells (human) (UniProt P12314).

Chain of BGB-A317/IgG4_(S228P) (human) (heavy, as listed by the source, chain 1 of 2): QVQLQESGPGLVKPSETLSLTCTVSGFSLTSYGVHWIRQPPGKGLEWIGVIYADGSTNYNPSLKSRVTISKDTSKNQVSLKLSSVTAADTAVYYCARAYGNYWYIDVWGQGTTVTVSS
Chain of BGB-A317/IgG4_(S228P) (human) (light, as listed by the source, chain 2 of 2): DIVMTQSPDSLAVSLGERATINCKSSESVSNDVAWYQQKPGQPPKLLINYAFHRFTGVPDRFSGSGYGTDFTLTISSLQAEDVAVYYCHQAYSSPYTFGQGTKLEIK

The term pKd denotes the negative decadic logarithm of the Kd, by convention in mol/L. Read a low pKd as a high Kd. A word on the koff: it is the first-order rate constant of dissociation. Low values mean a long-lived complex, high ones a short-lived complex. The term kon denotes the rate constant with which the complex forms. Read a low kon as slow association. In assay [1], “human FcγRI (from UniProt P12314 16-292) (receptor)” had a Ka of 3.57e+08 M⁻¹, a negative logarithm of the Kd (pKd) of 8.55, a koff of 0.00199 s⁻¹ and a kon of 712000 M⁻¹ s⁻¹.

In the case of BGB-A317/IgG4_(S228P) (antibody), the IL-10 gene transcription (real-time PCR) in M2 macrophages seeded on PD-1-coated plates in the presence of the antibody, against huIgG baseline in assay [2] was less than 5 fold.
